Results on one molecule are retold here after patent US9364516B2, “Treatment of fibrosis-related disorders using fibronectin binding proteins and polypeptides” (priority 2010, dated 2016).

In series [1] the test system is left carotid artery. Kind of series: Detection of Texas-Red conjugated peptides in vessel wall. Format: in vivo, mouse. To be noted: Texas-Red conjugate 20 μM in pluronic gel, periadventitial. The procedure: FIGS. 8A-8E provide visualization of pUR4 in the vessel wall. Texas-Red (TR) conjugated pUR4 (20 μM) was embedded in pluronic gel and periadventitially delivered to the left carotid artery following ligation surgery as described infra. The right carotid artery from the same animal was used as a control. Mice were sacrificed 1, 3, and 7 days after surgery, and the carotid arteries were harvested and flash frozen. Longitudinal sections (20 μm) were immunostained with an anti-TR antibody. Representative images from the right common carotid artery (FIG. 8A), and left common carotid artery of 1 day (FIG. 8B), 3 day (FIG. 8C), and 7 day (FIG. 8D) animals are shown. The percentage area which is TR (+) (FIG. 8E) was assessed in the media of the vessels. Media=M; adventitia=Ad; lumen=L. Bar, 20 μm.
pUR4 and III-11C were conjugated to Texas-Red, as per the manufacturer's instructions (Molecular Probes/Invitrogen). 20 μM Texas-Red (TR) conjugated proteins were embedded in pluronic gel and applied to the vessel following ligation surgery. […] For quantitatively evaluating the efficacy of peptide delivery to the common carotid artery, 15-18 fields of view in the media from 2-3 mice at each time point were analyzed. The TR (+) areas were quantitated using an automated programmed segmentation procedure in ImagePro. The percentage of TR (+) area to the total medial area was determined.

Series [2] has as its system left carotid artery of FVB mice. Kind of series: Carotid ligation flow-induced vascular remodeling, morphometry. Format: in vivo, mouse. The procedure:
Both sexes of FVB transgenic mice were used for the carotid ligation experiments, since no significant differences in their modeling response were reported between male and female mice. All procedures were approved by the University of Rochester Animal Care Committee, and were performed in accordance with the guidelines of the National Institutes of Health for the care and use of laboratory animals.
Digital images of Verhoeff-van Gieson elastic stained cross-sections were captured and morphometric analysis was performed using Image-Pro Plus software (Media Cybernetics, Md.). The circumferences of the lumen, internal elastic lamina (IEL) and external elastic lamina (EEL) in the sections were identified using the automatic trace mode in Image-Pro. The accuracy of the automated tracing was verified by visual inspection of the images. Cross-sectional areas of the lumen, neointima, media, adventitia, and the area encompassed by the EEL were measured. Vessel compartment volumes were calculated as described (Intengan et al., “Vascular Remodeling in Hypertension: Roles of Apoptosis, Inflammation, and Fibrosis,” Hypertension 38:581-587 (2001), which is hereby incorporated by reference in its entirety). Briefly, starting with the carotid bifurcation as the origin, a series of cross-sections of 5 μm were cut every 200 μm through the first mm length of the carotid artery. Morphometric analysis was performed at each point, and the average of each division was calculated, summed, and reported as the volume.
Blood flow in the left carotid artery of 10-week-old FVB/NJ (FVB) mice was reduced by ligating the external and internal carotid arterial branches as described (Korshunov et al., “Flow-Induced Vascular Remodeling in the Mouse: A Model for Carotid Intima-Media Thickening,” Arterioscler. Thromb. Vasc. Biol. 23:2185-2191 (2003), which is hereby incorporated by reference in its entirety). Mice were anesthetized with an intraperitoneal injection of ketamine (80 mg/kg) and xylazine (5 mg/kg) as described in the above-cited referenced. The left common carotid artery was dissected free of the surrounding connective tissue and 50 μL of F-127 pluronic gel (BASF) containing 20 μmol/L pUR4 or III-11C was applied around the carotid artery. Animals were separated into 5 groups containing 5 to 10 animals each: (1) sham-operated, in which the branches of the left carotid artery were exposed and dissected out, but not ligated; (2) ligation; (3) ligation with pluronic gel; (4) ligation with pluronic gel containing III-11C; (5) ligation with pluronic gel containing pUR4.
Blood flow in the left and right common carotid artery was measured using an ultrasonic transit-time volume flowmeter (Transonic Systems) before sacrifice. Animals were perfusion-fixed with 10% formalin 7 or 14 days after surgery. The common carotid arteries were harvested and embedded in paraffin. Cross-sections of 5 μm were cut from the bifurcation every 200 μm through the first mm length of the carotid artery as described (Korshunov et al., “Flow-Induced Vascular Remodeling in the Mouse: a Model for Carotid Intima-Media Thickening,” Arterioscler. Thromb. Vasc. Biol. 23:2185-2191 (2003), which is hereby incorporated by reference in its entirety). Sections were stained with Verhoeff-van Gieson elastic stain, and then subjected to morphometric analysis. […]

The subject of series [3] is C57/Bl6 mice. Kind of series: Myocardial infarction by permanent coronary ligation. Format: in vivo, mouse. The procedure: C57/B16 male mice (12 wks) underwent permanent coronary ligation injury. pUR4 or control peptide (III-11C or del29) was delivered (25 mg/kg/day) in randomized fashion immediately following induction of EKG-verified MI, then once daily via IP injection for 6 days. Serial, investigator-blind echocardiography for 4 weeks was followed by sacrifice; hearts were excised, weighed, and prepared for histological processing. […] FIG. 14B show the % fractional shortening (FS) in control (III-11C, n=8) and pUR4 (n=9) groups.
The therapeutic benefit of pUR4 mediated inhibition of fibronectin polymerization was investigated in a mouse model of myocardial infarction (MI). Male C57/Bl6 mice underwent permanent coronary artery ligation injury, verified at time of surgery by EKG S-T elevation. pUR4 or III-11C were administered via i.p. injection immediately following ligation. Animals subsequently received once daily IP injection for 6 days, and were followed for 4 weeks total. Serial, investigator blind echocardiography assessed cardiac function at baseline, 2 weeks, and 4 weeks.

Series [4] relates to cell spreading or adhesion to collagen or fibronectin. The conditions noted are these: cited from earlier work.
[5] abbreviates: vessel compartments analyzed separately.
[6] abbreviates: 25 mg/kg/day IP, one week of treatment, up to 4 weeks post-MI.
The mark [7] stands for this setting: echocardiography post-MI, p<0.05.

B1: pUR4: 49-mer peptide derived from the bacterial F1 adhesin, His tagged, SEQ ID NO:1; class I fibronectin polymerization inhibitor (peptide)
chain: MRGSHHHHHHGSKDQSPLAGESGETEYITEVYGNQQNPVDIDKKLPNETGFSGNMVETEDTKLN
modifications: His tag; Bacterial adhesin derived peptide pUR4
Take B1: the “peptide detected in the vessel wall (media and adventitia)” value in series [1] (1 to 3 days after application) is given as “readily detected”. Further, the “levels of the peptide in the vessel wall by day 7” value in series [1] (day 7) is reported as “significantly reduced”. The “increase in lumen volume after ligation” value in series [2] (20 μmol/L in pluronic gel, periadventitial) is listed as “prevented”. The “carotid (vascular) remodeling” value in series [2] (20 μmol/L in pluronic gel, periadventitial, 14 days after ligation) was “dramatically reduced”. Further, in series [2] (7 days after ligation), the “effect on IMT at 7 days” value is given as “no statistical effect”. Moreover, in series [2] (14 days after ligation), the “inhibition of adventitial thickening compared to III-11C” value stood at 38% and the “reduction of extent of IMT (intima-media thickening) vs control peptide” value is on record as 40%. Moreover, the “remodeling index, pUR4 vs III-11C” value in series [2] (mouse, in vivo) is “not different”. In series [2] (no difference in EEL volume vs shams 7 days post ligation), the “outward remodeling (EEL volume)” value is “prevented”. Also, in series [2] (setting [5]), the “reduction of intima thickening” value amounted to 63% and the “reduction of media thickening” value is reported as 27%. Moreover, in series [3] (setting [6]), the “cardiac function (% fractional shortening)” value is given as “preserved” and the “cardiac hypertrophy (heart weight to body weight ratio)” value is reported as “reduced”. Also, the “fibronectin deposition within the infarcted area and remote myocardium” value in series [3] (4 weeks post-MI) was “reduced”. The “collagen and fibronectin deposition post-MI” value in series [3] (FIGS. 15 and 16) is given as “reduced”. In series [3] (setting [7]), this molecule showed an end systolic diameter of 2.91±0.27 and an end-diastolic diameter of 4.12±0.22. Besides, the “cardiac remodeling, infarct size and infarct expansion” value in series [3] (histology 4 weeks post-MI) is reported as “reduction”. In addition, the “inhibition of cell spreading or adhesion to collagen or fibronectin” value in series [4] is “does not inhibit”.
